Experimental data published in paper PMC12894433.

System: dCas9 (EnGen Spy dCas9, SNAP-tag) (Streptococcus pyogenes)
Assay: single-molecule fluorescence co-localization
Details: NEBuffer r3.1 adjusted to 1 mM MgCl2; single-molecule: 17 nM YOYO-1, 1 ng DNA, about 1 nM dCas9-RNA, 15 min at 37 C; EMSA: 1 mM DTT, 1% agarose 1x TAE gel

| Substance | binding signal (% co-localization) |
| --- | --- |
| AAV2-ITR crRNA:tracrRNA-ATTO550 guide + pAAV-U6-sgRNA-CMV-GFP plasmid (positive) | 51 |
| AAV2-ITR crRNA:tracrRNA-ATTO550 guide + plasmid lacking the target site (negative) | 23 |
